Experimental data from publication PMC4509860 (Nature chemical biology, 2015).
Changes are numbered by the printed parent chain. Numbers in names are those of the source. No end group written: not given here. *: point of attachment. FITC = O=C1OC2(c3ccc(O)cc3Oc3cc(O)ccc32)c2ccc(NC(=S)*)cc21; Ahx = NCCCCCC(=O)O

B1: FITC-labeled TbtA leader peptide (peptide)
chain: SRRGSMLNLSDLPMDVFEMADSGMEVESLTAGHGMPEVGA
modifications: not fully specified (N-terminus); also: FITC label
B2: StmE L73A (natural protein)
chain: MRPNVQIVSRDGDNFVLNLRNGEYWHLNSSAYTMLTRIADGETVDEVARDISAATSAPEQTVRDDLTEAVDQLRKAKLVEVRHS
B3: TbtF wild-type (natural protein)
chain: MIPARPVLTPGVRYAPTSDGVAFLTRDGIVSITGVSIHRWIDRIAPHLTGERSVAELTDGLAPERRAFVLRLLQALADRGLIIDAAGGREPRLERGTACALHVTETCGPYRESLPKLARSLADALTRAGLDVRLASASEPCDPERCHALVHLTAADEVGLAAAERLDRLSERWGVPIAHVVVWGGEIWRTEAGTVGEDGLPLAAGWRRLTALRPDTEERVPISPTAAVVVAGQVAADVRDRLTTATRAGRRPRLHVVEPARLTCRAHHFIPHFHTMPLTGDAPLAEELTEEEFSRRAAALMDDRTGVFTEIAEGDFGQLPLHVAVTTVADPVGLLGPAGDRPRVIGVGPDFATARYRTARAAIALYGLLAVDPRRLVDADGEPLAGPRTSAAELEDLLGRIRAGGLPAFVRAEDVRGGPPRLLPASSVFPFATARALLAGTVPTGTAVGYSEEGALRAALLDHCRERTLADLASRRVARLTPDTAPSDPVTARYLAFLRAIGLPFDVLDATGPLGVPVYVGVLDGRVVAAEAGASPGEAFRSVLEGILRGLQGIPAARSLPDTLPPVLPEAMAVPDGSPLSAEALAAALARAGLSVSVVRLDHDRRVHALIPHCVRVMVTGEESAHV
B4: TbtF R79A (natural protein)
chain: B3 chain with R79A
B5: TbtG wild-type (enzyme)
chain: MSDALAAAIIGAGLLADELAAAFRPYGEVIRLDEVERAETEAHRLRALVMACDGWDTSIYRETRERCRRLGIPWLPVRTEHGIAVIGPLERPGEPGCAHCFELRRERARPDAAAYRAILNHHGPELAKRPSPYLDELAAATIAALGVRMIDQGSGCHVWYVRLNGLTVERHAFLPEPLCPECGSLPMDDRDSAVIVLRSQPKRAPDDYRTRDIVDELDALVADYVDGESGLIRPLVRDTQGGLVIAGAMLPLRFAGGSEPGVGRTRGYRTSEVTAILEALERWGGVEPGGKRTVIRAAFRDIAADALDPRTLGVHSPEAYAAEDFPFRPFTEDEETEWVWGYSFARRSPILVPETVAYYYVHRDRPRQERPFLYEISNGCALGSGMEEAILYGILEVVERDAFLMTWYGRLGVPRIDLDSAKNRMVPLQAAAISAETGYRIEVYDTTMEHGIPSVWALAIRGGEEPTAAPRPRMVCAAAAHLDPEQAVLSALSELGPLLADLLRRYPDEAERARRMVDDPGLVTTMHDHSTLYGADEAFGRLEFLTGTASTRDLAAMRESTVAFRSADLRDDLLEVIGRILAEGMDVIVVDQTTPEHRVHGFTCVKVLIPGMIPMTFGHRNRRLDGLTRPLVIPYRLGYRPAPLTPEALNPHPHPFP

Assays:
Assay in all cases: fluorescence polarisation
[1] = target: TbtF L24A (Thermobispora bispora)
[2] = target: TbtF/G (Thermobispora bispora)
[3] = target: TbtF F68A (Thermobispora bispora)
[4] = target: TbtF V30A (Thermobispora bispora)
[5] = target: TbtF D19A (Thermobispora bispora)
[6] = target: TbtF Q74A (Thermobispora bispora)
[7] = target: TbtF R71A (Thermobispora bispora)
[8] = target: CurC wild-type (Corynebacterium urealyticum DSM 7109)
[9] = target: FITC-labeled StmA leader peptide (Streptomonospora alba, N-terminal FITC-Ahx (fluorescein isothiocyanate with an amino hexyl linker))
[10] = target: B1
[11] = target: HcaF D21A (Bacillus sp. Al Hakam)
[12] = target: HcaF wild-type (Bacillus sp. Al Hakam)
[13] = target: HcaF F35A (Bacillus sp. Al Hakam)

B1
Kd [1]: 65 nM | Kd [2]: 66 nM | Kd [3]: 7.7 µM | Kd [4]: 210 nM | Kd [5]: 57 nM | Kd [6]: 49 nM | Kd [7]: 190 nM

{FITC-Ahx}-GMSTLISKLPPAVSTDSSKIVSEVQAFEPT [FITC-labeled CurA leader]
Kd [8]: 7 µM

B2
Kd [9]: > 10 µM

B3
Kd [10]: 66 nM

B4
Kd [10]: 79 nM

B5
Kd [10]: > 10000 nM

SGSMNQFQQELQSLNLNDYQTGNVVYWDPQQSQYPYYYIQDDAR (not fully specified (N-terminus); also: FITC label) [FITC-labeled HcaA leader peptide]
Kd [11]: 130 nM | Kd [12]: 89 nM | Kd [13]: 1700 nM
